Test results from PMC7580981.

Biological target: IBV polymerase trimeric complex (Pol3): PA-His, PB1, PB2 (influenza B virus)
Test: SPR; Biacore T200; […]; running buffer HBS-EP+; 1:1 fit model

Chain of human ANP32A, purified (GST cleaved) (P39687 whole entry): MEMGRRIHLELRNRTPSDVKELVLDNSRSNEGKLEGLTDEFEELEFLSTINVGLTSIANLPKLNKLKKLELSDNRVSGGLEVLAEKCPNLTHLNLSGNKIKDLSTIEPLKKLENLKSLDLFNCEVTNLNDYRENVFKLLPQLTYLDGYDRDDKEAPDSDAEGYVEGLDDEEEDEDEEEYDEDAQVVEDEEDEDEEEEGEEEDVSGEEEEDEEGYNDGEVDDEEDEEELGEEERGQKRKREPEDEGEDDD

Substance | KD of chANP32A relative to that of huANP32A (fold) | Kd [nM] | ka relative to chANP32A and huANP32A+33 (fold)
chicken ANP32A, purified (GST cleaved) (natural protein) | 3 | – | –
human ANP32A with the 33-amino-acid insert, purified (GST cleaved) | – | 101 | –
human ANP32A, purified (GST cleaved) (from UniProt P39687 1-249) (natural protein) | – | 54.2 | 2
